Data from patent EP4545563A1, “ANTIBODIES TARGETING ITGA2 AND ANTIBODY-DRUG […]” (Foreseen Technology (Beijing) Co., Ltd., priority 2022, dated 2024).

Key:
A431 = assay: ADC cancer cell killing, Cell-Titer-Glo 2.0; format: cell-based, human
Procedure: (§1) Human bile duct cancer cells HuCC-T1 available from Zhejiang MeisenCTCC, human epidermal cancer cells A431 available from Procell Life Science&Technology Co.,Ltd. (Wuhan) and Chinese hamster ovary cells CHO from negative control ATCC were seeded into a 96-well plate at 2500 cells/well. It was then incubated in a 5% CO2 incubator overnight at 37°C. Half of the medium was removed from the cell plate on the next day. A 2x hIgG1 (negative control antibody, provided by Biointron), Vatelizumab, FS002-A1-vc-MMAE, FS002-A15-vc-MMAE, FS002-A36-vc-MMAE, Vatelizumab-ve-MMAE, hIgG1-vcMMAE (negative control ADC, provided by ChemPartner) was prepared with a complete culture medium, and then diluted at a 3-fold gradient with 11 specific concentration points in total. Serial dilutions of the above molecules were added to the appropriate wells, and it was then incubated in a 5% CO2 incubator for 5 days at 37°C. After the incubation, 100 uL of Cell-Titer-Glo 2.0 reagent was added to the 96-well plate. It was then well mixed on a plate shaker for 2 minutes, and finally equilibrated at room temperature for 10 minutes. Readings were taken using a microplate reader. Finally, IC50 was used to compare the biological activity of the ADC against each cell line.

HuCC-T1 = assay: ADC cancer cell killing, Cell-Titer-Glo 2.0; format: cell-based, human
Procedure: as §1

CHO = assay: ADC cell killing in negative control cells, Cell-Titer-Glo 2.0; format: cell-based, Chinese hamster
Procedure: as §1

[1] = result in words, summary of Table 9

B1: Vatelizumab-ve-MMAE: antibody-drug conjugate of the positive control antibody Vatelizumab with vc-MMAE as the linker-payload (conjugate, chains of the INN, looked up)
VH: QVQLQESGPGLVKPSETLSLTCTVSGFSLTNYGIHWIRQPPGKGLEWLGVIWARGFTNYNSALMSRLTISKDNSKNQVSLKLSSVTAADTAVYYCARANDGVYYAMDYWGQGTLVTVSS
VL: DFVMTQSPAFLSVTPGEKVTITCSAQSSVNYIHWYQQKPDQAPKKLIYDTSKLASGVPSRFSGSGSGTDYTFTISSLEAEDAATYYCQQWTTNPLTFGQGTKVEIK
modifications: vc-MMAE payload
IC50 (A431; human epidermal cancer cells A431, incubated 5 days at 37°C): 0.08 nM
killing effect on A431 (A431; [1]): good killing effect
IC50 (HuCC-T1; Human bile duct cancer cells HuCC-T1, incubated 5 days at 37°C): 0.89 nM
killing effect on HuCC-T1 (HuCC-T1; [1]): good killing effect
IC50 (CHO; negative control cells CHO, incubated 5 days at 37°C): > 207 nM
killing effect on negative control cells CHO (CHO; [1]): no killing effect
